Reference: US12365912 (UNIVERSITY OF FLORIDA RESEARCH FOUNDATION, dated 2025)

B1: EYFP^C-CsACD2 (other)
chain: MAVNHLCQWQYLRFQLSHPSAPACRYLSPSRPKSSTSSTAKVNCSAAPSSSPMDSHNEGRKKFMEFPYASGPVRQLMVDLVSTVENTLDSQLLPCTLPPDVQYYENQNGTAQASLQIRSGLKSSLIDFILGSWVHSELPTGAALNITSLSAYLNSSTDAPNLLIELIQSSPTSLVLILDLPPRKDLVLHPDYLHTFYESTRLDEYRQMLEKVPEVRPYFSSSLYLRCVVSPSAIMVRVDTETETGAGESTRLDYIITNHVHPVAKQVIGIWLNQCACGGRHVGESDKAYLEKRDGLIKNKTIEIDLGSSFPRLFGPQVASRVLGEIQKVFTA
notes: not shown: C-terminal fragment of EYFP (pSAT6-cEYFP-C1-B) and its linker
B2: CsACD2-EYFP^N (other)
chain: B1 chain
notes: not shown: N-terminal fragment of EYFP (pSAT6-nEYFP-C1) and its linker

How the values were obtained:
[1] = molecular target: SDE15-EYFP^N ([…]_04025 without signal peptide fused to the N-terminal fragment of EYFP) (Ca. liberibacter asiaticus); experiment: BiFC in citrus leaf protoplasts (FIG. 10B)
[2] = molecular target: EYFP^C-SDE15 ([…]_04025 without signal peptide fused to the C-terminal fragment of EYFP) (Ca. liberibacter asiaticus); experiment: BiFC in citrus leaf protoplasts (FIG. 10B)
[3] = molecular target: B1; experiment: BiFC in citrus leaf protoplasts

Binder	binding result [1]	binding result [2]	binding result [3]
B1	binds	–	–
B2	–	binds	no binding
